Assay results from patent US20190367609A1 (INNATE PHARMA, published 2019).
Substitutions are numbered along the chain they refer to.

B1: 9H11A antibody-drug conjugate with PBD dimer (DAR=2) (antibody, V domains shown)
VH: QVQLQQPGAELVKPGASVKLSCKASGYTFTSYWMHWVKLRPGQGFEWIGEIIPSNGVTNYNEKFKRKATLTVDKSSSTAYMQLSSLTSEDSAVYYCTIRLRYALDYWGQGTSVTVSA
VL: DIQMTQTTSSLSASLGDRVTISCRASQDISNFLNWYQQKPDGTVKLLIYYTSRLHSGVPSRFSGSGSGTDYSLTISNLEQEDIATYFCQQGNTLPPTFGGGTKLEIK
modifications: PBD dimer through amino-PEG-azide / DBCO-val-ala linker on Q295 (Kabat EU numbering) of each heavy chain; deglycosylated with PNGaseF
B2: 9H11B antibody-drug conjugate with PBD dimer (DAR=2) (antibody, V domains shown)
VH: B1 VH
VL: DIVMTQSQKFMSTSVGDRVSVTCKASQNVGTNVAWYQQKPGQSPKALIYSTSFRYSGVPDRFTGSGSGTDFTLTISNVQSEDLAEYFCQQYNSYPFTFGSGTKLEIK
modifications: PBD dimer through amino-PEG-azide / DBCO-val-ala linker on Q295 (Kabat EU numbering) of each heavy chain; deglycosylated with PNGaseF
B3: 17E1 antibody-drug conjugate with PBD dimer (DAR=2) (antibody, V domains shown)
VH: QVQLQQPGSVLVRPGASVKLSCKASGYTFTSSWMHWAKQRPGQGLEWIGHIHPNSGISNYNEKFKGKATLTVDTSSSTAYVDLSSLTSEDSAVYYCSRGGRFDDWGAGTTVTVSS
VL: DIQMTQSPSSLSASLGERVSLTCRASQDIGSSLNWLQQEPDGTIKRLIYATSRLDSGVPKRFSGSRSGSDYSLTISSLESEDFVDYYCLQYASSPWTFGGGTKLEIK
modifications: PBD dimer through amino-PEG-azide / DBCO-val-ala linker on Q295 (Kabat EU numbering) of each heavy chain; deglycosylated with PNGaseF
B4: 9H11A (antibody, V domains shown)
VH: B1 VH
VL: B1 VL
notes: also called CHG1-M-H46 9H11-A
B5: 9H11B (antibody, V domains shown)
VH: B1 VH
VL: B2 VL
notes: Same heavy chain variable domain as 9H11A with a different light chain; also called CHG1-M-H46 9H11-B
B6: 8B6B (antibody, V domains shown)
VH: QVQLQQPGSELVRPGASVKLSCKASGYTFTSYWMHWVKQRPGQGLEWIGTIYPGSDITNYDEKFKNKATLTVDTSSSTAYMQLSSLTSEDSAVYYCTRDGRFANWGQGTLVTVSA
VL: B3 VL with D1E, R53S, W96Y
notes: Same heavy chain variable domain as 8B6A with a different light chain; also called CHG1-M-H46 8B6-B
B7: 8B6A (antibody, V domains shown)
VH: B6 VH
VL: EIVLTQSPAITAASLGQKVTITCSASSSVSYMHWYQQKSGTSPKPWIYEISKLASGVPARFSGSGSGTSYSLTISSMEAEDAAIYYCQQWNLPLTFGAGTKLELK
notes: Mouse variable domains; light chain is kappa (VK); also called CHG1-M-H46 8B6-A
B8: 17E1 (antibody, V domains shown)
VH: B3 VH
VL: B3 VL
notes: also called CHG1-M-H46 17E1

biological target: T1, human NKp46 expressed on cells (human, UniProt O76036 22-304); test: cell-based or functional assay
T1 sequence (O76036 22-304 Q82K limits assumed): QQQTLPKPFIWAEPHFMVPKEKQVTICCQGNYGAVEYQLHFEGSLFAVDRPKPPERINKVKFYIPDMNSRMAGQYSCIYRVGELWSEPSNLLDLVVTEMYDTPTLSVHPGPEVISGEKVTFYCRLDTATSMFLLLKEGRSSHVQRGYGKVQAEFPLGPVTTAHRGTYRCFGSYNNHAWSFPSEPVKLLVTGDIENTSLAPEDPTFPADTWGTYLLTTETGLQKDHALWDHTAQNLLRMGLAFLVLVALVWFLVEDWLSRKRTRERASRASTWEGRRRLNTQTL

Row | Binder | IC50 for cytotoxicity towards SNK6 cells (Cell Titer Glo, 72 h) [ng/mL]
1 | B1 | 0.02
2 | B2 | 0.01
3 | B3 | 0.01

biological target: T2, Human 6xHis tagged NKp46 recombinant protein (human, UniProt O76036 22-255, limits assumed); test: SPR Biacore T100, antibody captured on Protein-G chip, soluble NKp46-His 12.5-200 nM, single cycle kinetics, 1:1 model, monovalent
T2 construct: also called NKp46-His; soluble NKp46-His recombinant proteins; not shown: 6xHis tag
Experimental: SPR measurements were performed on a Biacore T100 apparatus (Biacore GE Healthcare) at 25° C. In all Biacore experiments HBS-EP+ (Biacore GE Healthcare) and NaOH 10 mM NaCl 500 mM served as running buffer and regeneration buffer respectively. Sensorgrams were analyzed with Biacore T100 Evaluation software. Protein-G was purchase from GE Healthcare and Anti-His antibody from QIAGEN. Human 6×His tagged NKp46 recombinant proteins (NKp46-His) were cloned, produced and purified at Innate Pharma.
Affinity study has been performed using the Protein-G chip. Monovalent affinity study was done following the Single Cycle Kinetic (SCK) protocol. Five serial dilutions of soluble NKp46-His recombinant proteins ranging from 12.5 to 200 nM were injected over the captured Anti-NKp46 anti bodies (without regeneration) and allowed to dissociate for 10 min before regeneration. For each antibody, the entire sensorgram was fitted using the 1:1 SCK binding model.

T2 sequence (O76036 22-255 Q82K limits assumed): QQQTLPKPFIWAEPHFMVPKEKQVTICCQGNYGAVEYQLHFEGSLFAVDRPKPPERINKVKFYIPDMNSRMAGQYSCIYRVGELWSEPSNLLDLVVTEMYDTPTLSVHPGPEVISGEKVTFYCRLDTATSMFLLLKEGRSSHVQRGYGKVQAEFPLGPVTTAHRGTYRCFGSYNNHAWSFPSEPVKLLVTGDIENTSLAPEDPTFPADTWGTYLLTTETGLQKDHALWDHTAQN

Row | Kd [nM] | koff [s⁻¹] | kon [M⁻¹ s⁻¹] | Binder
4 | 0.728 | 0.000199 | 273000 | B4
5 | 0.892 | 0.000253 | 283000 | B5
6 | 4.07 | 0.0011 | 271000 | B6
7 | 4.08 | 0.00109 | 267000 | B7

biological target: T3, Macaca fascicularis NKp46 expressed on CHO cells (Macaca fascicularis, UniProt Q95JB9 22-306); test: flow cytometry on CHO cells transfected with cyno NKp46, dose range, anti-human IgG1-PE detection
T3 construct: Cloned from Macaca fascicularis cDNA and transfected into the CHO cell line; also called cyno NKp46; CHO-cynoNKp46
Experimental: The antibodies (including 8B6A, 8B6B, 9H11A, 9H11B and 17E1) were assessed for binding to Macaca fascicularis NKp46 (cyno NKp46) protein. The sequence of cyno NKp46 (shown below) was cloned from Macaca fascicularis cDNA and transfected into the CHO cell line. The binding of CHG1-M-H46 to CHO-cynoNKp46 was analyzed by flow cytometry.
Flow cytometry: CHO cells were harvested and stained in PBS 1×/BSA 0.2%/EDTA 2 mM buffer during 30 minutes at 4° C. using a dose-range of the anti-NKp46 mAbs. After two washes in staining buffer, cells incubated with anti-NKp46 antibodies were stained for 30 min at 4° C. with mouse anti-human IgG1-PE monoclonal antibodies from Miltenyi (dil 1/10). After two washes, stainings were acquired on a HTFC Intellicyt and analyzed using ForeCyt software.

T3 sequence (Q95JB9 22-306 limits assumed): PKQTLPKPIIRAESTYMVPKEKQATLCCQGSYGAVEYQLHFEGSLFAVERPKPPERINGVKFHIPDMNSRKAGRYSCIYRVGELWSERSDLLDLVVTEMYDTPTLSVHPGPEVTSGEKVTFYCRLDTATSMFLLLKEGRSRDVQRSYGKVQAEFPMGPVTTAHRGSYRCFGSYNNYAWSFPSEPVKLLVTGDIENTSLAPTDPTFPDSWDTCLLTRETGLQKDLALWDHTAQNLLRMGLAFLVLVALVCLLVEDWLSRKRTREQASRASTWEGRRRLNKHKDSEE

Row | EC50 [ng/mL] | Binder
8 | 26 | B4
9 | 25 | B5
10 | 59 | B8
11 | 28 | B6
12 | 29 | B7

biological target: T1, human NKp46 expressed on cells; test: flow cytometry on Raji-hNKp46 cells, dose range, anti-human IgG1-PE detection
Experimental: Flow cytometry: Cells were harvested and stained in PBS 1×/BSA 0.2%/EDTA 2 mM buffer during 30 minutes at 4° C. using a dose-range of the anti-NKp46 mAbs. After two washes in staining buffer, cells incubated with anti-NKp46 antibodies were stained for 30 min at 4° C. with mouse anti-human IgG1-PE monoclonal antibodies from Miltenyi (dil. 1/10). After two washes, the stainings were acquired on the HTFC Intellicyt device and analyzed using the ForeCyt software.

Row | EC50 [ng/mL] | Binder
13 | 51 | B4
14 | 124 | B5
15 | 55 | B8
16 | 76 | B6
17 | 148 | B7
